Among the targets are LILRB3; LILRA6; LILRB4; LAIR1 on reporter cells (UniProt Q6GTX8); LILRA3; LILRA4; LILRA5; LILRB5; LILRB1; LILRA2.
What all share (assay): flow cytometry, reporter cells, secondary antibody alone (blank)
Test [1] concerns the target LILRA1 on reporter cells (extracellular domain) (UniProt O75019).
In test [2] the target is LILRB2 chimeric receptor on LILRB2 reporter cells (extracellular domain of LILRB2 fused with transmembrane/intracellular domains of PILRb) (UniProt Q8N423).

Sequence of LILRA1 on reporter cells (extracellular domain) (O75019 17-461 limits assumed): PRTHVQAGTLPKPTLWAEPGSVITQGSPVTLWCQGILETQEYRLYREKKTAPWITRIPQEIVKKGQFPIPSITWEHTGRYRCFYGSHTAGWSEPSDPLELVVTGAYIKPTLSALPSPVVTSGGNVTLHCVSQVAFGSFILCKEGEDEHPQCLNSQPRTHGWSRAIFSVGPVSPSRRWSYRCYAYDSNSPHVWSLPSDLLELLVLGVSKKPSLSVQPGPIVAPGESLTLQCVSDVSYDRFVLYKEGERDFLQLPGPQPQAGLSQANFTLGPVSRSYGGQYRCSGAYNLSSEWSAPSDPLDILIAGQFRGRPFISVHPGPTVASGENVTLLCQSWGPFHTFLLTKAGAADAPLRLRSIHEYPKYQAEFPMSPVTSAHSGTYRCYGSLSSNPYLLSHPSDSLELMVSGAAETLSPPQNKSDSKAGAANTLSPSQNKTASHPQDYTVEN
Sequence of LILRA5 (chain, as listed by the source limits assumed): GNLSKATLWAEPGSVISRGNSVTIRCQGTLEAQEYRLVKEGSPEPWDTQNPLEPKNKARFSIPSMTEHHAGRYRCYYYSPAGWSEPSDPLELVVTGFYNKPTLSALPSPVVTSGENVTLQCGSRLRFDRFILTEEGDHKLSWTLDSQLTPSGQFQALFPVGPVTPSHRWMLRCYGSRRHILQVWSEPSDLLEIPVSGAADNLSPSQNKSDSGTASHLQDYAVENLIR
Sequence of LILRA2 (chain, as listed by the source limits assumed): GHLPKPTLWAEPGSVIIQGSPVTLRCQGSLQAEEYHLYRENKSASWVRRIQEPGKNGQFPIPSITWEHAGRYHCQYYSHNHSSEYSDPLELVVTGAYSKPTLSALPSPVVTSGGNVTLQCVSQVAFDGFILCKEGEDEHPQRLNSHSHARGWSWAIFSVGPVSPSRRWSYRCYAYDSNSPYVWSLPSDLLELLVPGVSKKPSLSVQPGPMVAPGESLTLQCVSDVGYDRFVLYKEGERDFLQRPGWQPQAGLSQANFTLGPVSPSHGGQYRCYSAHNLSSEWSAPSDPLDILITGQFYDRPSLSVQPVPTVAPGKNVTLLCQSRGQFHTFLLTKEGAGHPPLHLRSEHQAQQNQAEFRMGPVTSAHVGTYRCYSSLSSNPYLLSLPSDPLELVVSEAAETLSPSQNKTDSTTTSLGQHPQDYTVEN
Sequence of LAIR1 on reporter cells (Q6GTX8 22-165 limits assumed): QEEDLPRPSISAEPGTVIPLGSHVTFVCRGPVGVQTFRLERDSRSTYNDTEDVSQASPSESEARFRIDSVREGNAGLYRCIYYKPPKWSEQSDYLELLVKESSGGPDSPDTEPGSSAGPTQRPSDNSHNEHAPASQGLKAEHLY
Sequence of LILRA4 (chain, as listed by the source limits assumed): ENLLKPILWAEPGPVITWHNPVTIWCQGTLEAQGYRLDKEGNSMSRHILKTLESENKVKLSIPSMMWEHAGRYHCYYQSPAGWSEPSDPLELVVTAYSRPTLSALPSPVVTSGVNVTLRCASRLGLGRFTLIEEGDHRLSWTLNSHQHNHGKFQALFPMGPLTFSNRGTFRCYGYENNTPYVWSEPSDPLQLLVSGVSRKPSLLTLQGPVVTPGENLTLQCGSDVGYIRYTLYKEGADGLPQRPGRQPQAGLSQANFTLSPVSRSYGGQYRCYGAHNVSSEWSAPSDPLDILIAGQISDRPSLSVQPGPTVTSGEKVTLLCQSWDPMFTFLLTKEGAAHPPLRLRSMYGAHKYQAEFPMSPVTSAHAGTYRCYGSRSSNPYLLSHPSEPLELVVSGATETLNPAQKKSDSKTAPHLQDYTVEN
Sequence of LILRA6 (chain, as listed by the source limits assumed): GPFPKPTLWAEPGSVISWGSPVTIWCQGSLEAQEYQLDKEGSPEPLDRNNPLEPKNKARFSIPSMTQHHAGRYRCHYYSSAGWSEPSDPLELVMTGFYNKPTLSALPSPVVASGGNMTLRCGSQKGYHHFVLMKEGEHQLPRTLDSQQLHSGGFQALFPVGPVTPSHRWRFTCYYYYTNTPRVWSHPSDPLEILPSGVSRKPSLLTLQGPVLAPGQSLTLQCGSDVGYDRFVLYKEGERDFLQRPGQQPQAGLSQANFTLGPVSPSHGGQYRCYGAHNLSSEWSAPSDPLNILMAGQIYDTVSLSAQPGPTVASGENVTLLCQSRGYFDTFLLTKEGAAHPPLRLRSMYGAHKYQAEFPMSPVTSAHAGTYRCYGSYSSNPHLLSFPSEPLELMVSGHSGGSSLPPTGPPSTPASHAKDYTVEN
Sequence of LILRB1 (chain, as listed by the source limits assumed): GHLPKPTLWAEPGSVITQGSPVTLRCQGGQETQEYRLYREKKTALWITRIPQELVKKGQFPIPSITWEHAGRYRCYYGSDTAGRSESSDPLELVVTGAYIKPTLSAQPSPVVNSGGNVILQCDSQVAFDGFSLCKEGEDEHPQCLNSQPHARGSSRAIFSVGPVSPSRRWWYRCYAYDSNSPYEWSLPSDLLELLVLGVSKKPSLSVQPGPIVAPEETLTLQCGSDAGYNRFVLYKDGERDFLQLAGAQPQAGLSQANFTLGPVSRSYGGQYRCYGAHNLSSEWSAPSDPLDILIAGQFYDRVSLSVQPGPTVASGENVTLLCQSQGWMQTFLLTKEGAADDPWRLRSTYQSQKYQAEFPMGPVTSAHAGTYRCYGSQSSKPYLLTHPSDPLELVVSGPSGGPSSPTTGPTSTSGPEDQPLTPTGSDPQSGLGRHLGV
Sequence of LILRB5 (chain, as listed by the source limits assumed): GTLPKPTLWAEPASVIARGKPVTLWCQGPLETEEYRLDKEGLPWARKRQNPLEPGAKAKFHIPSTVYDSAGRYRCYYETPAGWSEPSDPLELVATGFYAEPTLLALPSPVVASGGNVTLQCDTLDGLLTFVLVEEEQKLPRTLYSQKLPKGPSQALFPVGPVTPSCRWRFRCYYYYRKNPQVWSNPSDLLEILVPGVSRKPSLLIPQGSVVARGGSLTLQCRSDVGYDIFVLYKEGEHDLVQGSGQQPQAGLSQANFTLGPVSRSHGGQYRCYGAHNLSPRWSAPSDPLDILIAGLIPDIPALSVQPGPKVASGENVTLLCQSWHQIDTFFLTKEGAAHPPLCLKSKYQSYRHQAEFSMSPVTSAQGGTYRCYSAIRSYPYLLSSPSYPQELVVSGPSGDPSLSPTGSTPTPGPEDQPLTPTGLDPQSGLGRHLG
Sequence of LILRA3 (chain, as listed by the source limits assumed): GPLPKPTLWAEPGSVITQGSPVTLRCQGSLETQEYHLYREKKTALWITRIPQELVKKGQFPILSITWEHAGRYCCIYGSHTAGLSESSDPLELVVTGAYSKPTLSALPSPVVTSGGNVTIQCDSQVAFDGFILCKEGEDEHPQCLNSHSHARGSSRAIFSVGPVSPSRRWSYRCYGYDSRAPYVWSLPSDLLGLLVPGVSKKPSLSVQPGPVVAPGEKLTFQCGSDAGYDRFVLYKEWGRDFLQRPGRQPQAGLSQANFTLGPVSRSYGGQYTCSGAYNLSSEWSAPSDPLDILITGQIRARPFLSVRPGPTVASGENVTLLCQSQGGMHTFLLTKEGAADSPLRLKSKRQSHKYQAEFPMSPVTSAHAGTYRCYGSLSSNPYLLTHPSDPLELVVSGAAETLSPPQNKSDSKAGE

For 2nd Ab (antibody), the MFI in the test with LILRB3 was 9; in test [1] it was 10; with LILRA6 it was 10; in test [2], 10; with LILRB4, 13; with LAIR1 on reporter cells, 23. Also, the MFI in the test with LILRA3 is 10; in the test with LILRA4 it was 10; with LILRA5 it was 11; with LILRB5, 11; with LILRB1, 9; with LILRA2 it was 9.

For the origin of these results see patent US20230068663A1.
